From patent publication US20210355194A1 (TWIST BIOSCIENCE, published 2021) come the findings set out here.

Positions count from the first letter of the chain named. Like-named read-outs stand apart in the source and are kept apart here.

As usually defined, the IC50 is the point on the concentration scale where inhibition reaches its midpoint. The low end stands for inhibition by little substance, the high end for a need for much substance. As usually defined, the Kd is a measure of binding affinity in units of concentration. A lower Kd goes with tighter binding. The term EC80 denotes the concentration needed for an effect of 80%.

Assay [1] has as its target SARS-COV2-S1 RBD (mouse IgG2Fc tag) (SARS-CoV-2, UniProt P0DTC2 319-537).
The target is the same in assay [2]. The assay can be described thus: FACS, S1 RBD-mFc on Vero E6 (ACE2). On the technique in general: A flow cytometer gives signals particle by particle.
The target of assay [3] is T1, Acro SARS-CoV-2 (COVID-19) S1 protein (SARS-CoV-2, UniProt P0DTC2 16-685).
T1 construct: also called SARS-CoV-2 S1
The assay can be described thus: SPR.

Assay [4] addresses T2, Acro SARS-CoV-2 (COVID-19) S1 protein (SARS-CoV-2, UniProt P0DTC2 16-685).
T2 construct: also called SARS-CoV-2 S1
Kind of assay: SPR. The source holds these as a separate data set. Background: SPR reads the build-up and loss of mass on a sensor chip optically.

In assay [5] the target is SARS-CoV-2 spike on live SARS-CoV-2 virus (SARS-CoV-2, UniProt P0DTC2 14-1273). Kind of assay: cell-based or functional assay.
A further assay addresses T3, SARS-CoV-2 S1 protein (SARS-CoV-2, UniProt P0DTC2 16-685).
T3 construct: also called SARS-CoV-2 Spike Glycoprotein S1; S1 (subunit 1)
The assay can be described thus: phage ELISA screen on S1, mean. (An ELISA detects its analyte on a solid surface through an enzyme-linked reagent.)

B1: variant 6-67 (Fc fusion)
VHH: EVQLVESGGGLVQPGGSLRLSCAASGSFSNYAMGWFRQAPGKEREFVAAISSSGALTSYADSVKGRFTISADNSKNTAYLQMNSLKPEDTAVYYCWIVGPGPLDGMDVWGQGTLVTVSS
With B1, in assay [1], the IC50 was found to be 3.8 nM. This counts as single-digit nanomolar.

B2: variant 5-37 (Fc fusion)
VHH: EVQLVESGGGLVQPGGSLRLSCAASGSTFSINAMGWFRQAPGKEREFVGGISRSGATTNYADSVKGRFTISADNSKNTAYLQMNSLKPEDTAVYYCAADGVPEYSDYASGPVWGQGTLVTVSS
notes: VHH-Fc
Turning to B2, the “Competition Factor” value in assay [2] worked out at 8.19. In assay [3], this molecule registered a Kd of 30.2 nM.

B3: variant 6-34 (Fc fusion)
VHH: EVQLVESGGGLVQPGGSLRLSCAASGSAFRSNAMGWFRQAPGKEREFVAHISWSSKSTYYADSVKGRFTISADNSKNTAYLQMNSLKPEDTAVYYCATYCSSTSCFDYWGQGTLVTVSS
With B3, in assay [1], the IC50 worked out at 8.24 nM. For the same molecule, in assay [4], the Kd came out at 21.3 nM.

B4: variant 6-57 (Fc fusion)
VHH: EVQLVESGGGLVQPGGSLRLSCAASGLTFDDHSMGWFRQAPGKEREFVAAVPLSGNTYYADSVKGRFTISADNSKNTAYLQMNSLKPEDTAVYYCASFSGGPADFDYWGQGTLVTVSS
In turn, B4 came in with an IC50 in assay [1] of 3.13 nM.

B5: variant 6-1 (Fc fusion)
VHH: EVQLVESGGGLVQPGGSLRLSCAASGRTFGNYNMGWFRQAPGKEREFVATINSLGGTSYADSVKGRFTISADNSKNTAYLQMNSLKPEDTAVYYCARVDYYMDVWGQGTLVTVSS
Consider B5, for which the IC50 in assay [1] worked out at 15.8 nM. Against the preceding molecule, the IC50 is about 5-fold higher.

B6: variant 6-41 (Fc fusion)
VHH: EVQLVESGGGLVQPGGSLRLSCAASGFTFSTSWMGWFRQAPGKEREFVASINEYGGRNYADSVKGRFTISADNSKNTAYLQMNSLKPEDTAVYYCAGLHYYYDSSGYNPTEYYGMDVWGQGTLVTVSS
B6 had an IC50 in assay [1] of 6.6 nM.

B7: variant 6-73 (Fc fusion)
VHH: EVQLVESGGGLVQPGGSLRLSCAASGHTFSGYAMGWFRQAPGKEREFVAVITREGSTYYADSVKGRFTISADNSKNTAYLQMNSLKPEDTAVYYCARLGGEGFDYWGQGTLVTVSS
notes: VHH-Fc
In the case of B7, the “Competition Factor” value in assay [2] is 7.99. Binding in assay [3] was put at a Kd of 103 nM.

B8: variant 5-34 (Fc fusion)
VHH: EVQLVESGGGLVQPGGSLRLSCAASGRTFSRYIMGWFRQAPGKEREFVAAISWSGGDNTYYADSVKGRFTISADNSKNTAYLQMNSLKPEDTAVYYCAAYRIVVGGTSPGDWRWGQGTLVTVSS
notes: VHH-Fc
B8: the “Competition Factor” value in assay [2] was 5.69.

B9: variant 6-55 (Fc fusion)
VHH: EVQLVESGGGLVQPGGSLRLSCAASGFTMSSSWMGWFRQAPGKEREFVARITSGGSTGYADSVKGRFTISADNSKNTAYLQMNSLKPEDTAVYYCASVDGYFDYWGQGTLVTVSS
notes: VHH-Fc
For the molecule B9, the “Competition Factor” value in assay [2] stood at 7.98. This molecule also displayed a Kd in assay [3] of 25.2 nM.

B10: variant 6-38 (Fc fusion)
VHH: EVQLVESGGGLVQPGGSLRLSCAASGNTFSGGFMGWFRQAPGKEREFVAVISSLSSKSYADSVKGRFTISADNSKNTAYLQMNSLKPEDTAVYYCAKVDSGYDYWGQGTLVTVSS
In turn, B10 returned an IC50 in assay [1] of 1.94 nM. Also, in assay [4], the Kd is 26.6 nM.

B11: variant 6-47 (Fc fusion)
VHH: EVQLVESGGGLVQPGGSLRLSCAASGRTFSMHAMGWFRQAPGKERELVASITYGGNINYADSVKGRFTISADNSKNTAYLQMNSLKPEDTAVYYCAKEGYYDSTGYRTYFQQWGQGTLVTVSS
In turn, B11 displayed an IC50 in assay [1] of 5.86 nM.

B12: variant 6-45 (Fc fusion)
VHH: EVQLVESGGGLVQPGGSLRLSCAASGNMFSINAMGWFRQAPGKEREFVTLISWSSGRTSYADSVKGRFTISADNSKNTAYLQMNSLKPEDTAVYYCASLGYCSGGSCFDYWGQGTLVTVSS
B12: the IC50 in assay [1] was 1.16 nM. The 80% effect level in assay [5] (EC80) was put at 4.02 µg/mL. For the same molecule, in assay [4], binding was put at a Kd of 17.5 nM.

B13: 2-4 (antibody, V domains shown)
VH: EVQLLESGGGLVQPGGSLRLSCAASGFTFSDFAMAWVRQAPGKGLEWVSAISGSGDITYYADSVKGRFTISRDNSKNTLYLQMNSLRAEDTAVYYCAREADGLHSPWHFDLWGQGTLVTVSS
VL: DIQMTQSPSSLSASVGDRVTITCRASQSIDTYLNWYQQKPGKAPKLLIYAASALASGVPSRFSGSGSGTDFTLTISSLQPEDFATYYCQQSYSAPPYTFGQGTKVEIK
notes: also called variant 2-4
Take B13: the “ELISA(Avg)” value with SARS-CoV-2 S1 protein came to 15.5 fold over background.

B14: variant 6-60 (Fc fusion)
VHH: EVQLVESGGGLVQPGGSLRLSCAASGDTYGSYWMGWFRQAPGKEREFVATISQSGAATAYADSVKGRFTISADNSKNTAYLQMNSLKPEDTAVYYCAGLLRYSGTYYDAFDVWGQGTLVTVSS
notes: VHH-Fc
In the case of B14, the “Competition Factor” value in assay [2] is 12.6. In addition, in assay [3], the affinity, expressed as Kd, was 20.1 nM.

B15: variant 6-54 (Fc fusion)
VHH: EVQLVESGGGLVQPGGSLRLSCAASGFEFENHWMGWFRQAPGKEREYVAHITAGGLSNYADSVKGRFTISADNSKNTAYLQMNSLKPEDTAVYYCGRHWGIYDSSGFSSFDYWGQGTLVTVSS
On to B15, for which, in assay [1], the IC50 worked out at 8.9 nM. This lies in the single-digit nanomolar range.

B16: variant 6-39 (Fc fusion)
VHH: EVQLVESGGGLVQPGGSLRLSCAASGFTFSPSWMGWFRQAPGKEREFVAAISWSGGSTAYADSVKGRFTISADNSKNTAYLQMNSLKPEDTAVYYCHGLGEGDPYGDYEGYFDLWGQGTLVTVSS
B16 had an IC50 in assay [1] of 1.53 nM. In assay [4], this molecule had a Kd of 11.3 nM.

B17: variant 6-10 (Fc fusion)
VHH: EVQLVESGGGLVQPGGSLRLSCAASGSIASIHAMGWFRQAPGKEREFVAAISRSGGFGSYADSVKGRFTISADNSKNTAYLQMNSLKPEDTAVYYCARDDKYYDSSGYPAYFQHWGQGTLVTVSS
B17 returned an IC50 in assay [1] of 1.44 nM. The Kd in assay [4] is 29.7 nM.

B18: variant 6-20 (Fc fusion)
VHH: EVQLVESGGGLVQPGGSLRLSCAASGSTLPYHAMGWFRQAPGKEREFVAAITWNGASTSYADSVKGRFTISADNSKNTAYLQMNSLKPEDTAVYYCARDRYYDTSASYFESETWGQGTLVTVSS
notes: VHH-Fc
As for B18, the “Competition Factor” value in assay [2] worked out at 9.95. Binding in assay [3] was put at a Kd of 20.9 nM.

B19: variant 6-65 (Fc fusion)
VHH: EVQLVESGGGLVQPGGSLRLSCAASGLPFSTLHMGWFRQAPGKEREFVASLSIFGATGYADSVKGRFTISADNSKNTAYLQMNSLKPEDTAVYYCWMYYYDSSGYYGNYYYGMDVWGQGTLVTVSS
With B19, the IC50 in assay [1] was determined as 37.5 nM.

B20: variant 5-20 (Fc fusion)
VHH: EVQLVESGGGLVQPGGSLRLSCAASGRTIVPYTMGWFRQAPGKERELVAAISPSAFTEYADSVKGRFTISADNSKNTAYLQMNSLKPEDTAVYYCAARRWGYDWGQGTLVTVSS
notes: VHH-Fc
As to B20, the “Competition Factor” value in assay [2] came to 12.4. Moreover, in assay [3], binding was characterised by a dissociation constant (Kd) of 14.3 nM.

B21: variant 5-1 (Fc fusion)
VHH: EVQLVESGGGLVQPGGSLRLSCAASGGTFSSIGMGWFRQAPGKEREFVAAISWDGGATAYADSVKGRFTISADNSKNTAYLQMNSLKPEDTAVYYCAKEDVGKPFDWGQGTLVTVSS
notes: VHH-Fc
For B21, the “Competition Factor” value in assay [2] was found to be 10. The affinity in assay [3], expressed as Kd, was 15.1 nM.

B22: variant 6-18 (Fc fusion)
VHH: EVQLVESGGGLVQPGGSLRLSCAASGLTFRNYAMGWFRQAPGKEREFIAGMMWSGGTTTYADSVKGRFTISADNSKNTAYLQMNSLKPEDTAVYYCAREGYYYDSSGYLNYFDYWGQGTLVTVSS
The molecule B22 came in with an IC50 in assay [1] of 12.3 nM. The Kd in assay [4] is 30.1 nM.

B23: variant 6-30 (Fc fusion)
VHH: EVQLVESGGGLVQPGGSLRLSCAASGFAFGDSWMGWFRQAPGKEREFVATINWSGVTAYADSVKGRFTISADNSKNTAYLQMNSLKPEDTAVYYCARADGYFDYWGQGTLVTVSS
The molecule B23 came in with an IC50 in assay [1] of 2.94 nM. Also, binding in assay [4] was put at a Kd of 11.8 nM.

B24: variant 6-7 (Fc fusion)
VHH: B23 VHH with A28T, G30S, D31S, S32Y, G100D
For the molecule B24, the IC50 in assay [1] amounted to 1.53 nM.

B25: variant 6-77 (Fc fusion)
VHH: EVQLVESGGGLVQPGGSLRLSCAASGFTFDRSWMGWFRQAPGKEREFVAAVTEGGTTSYADSVKGRFTISADNSKNTAYLQMNSLKPEDTAVYYCARADYDFDYWGQGTLVTVSS
In assay [1], B25 yielded an IC50 of 4.04 nM. For the same molecule, the affinity in assay [4], expressed as Kd, was 24.6 nM.

B26: variant 6-26 (Fc fusion)
VHH: EVQLVESGGGLVQPGGSLRLSCAASGDTFSTSWMGWFRQAPGKEREFVATINTGGGTNYADSVKGRFTISADNSKNTAYLQMNSLKPEDTAVYYCARVTTSFDYWGQGTLVTVSS
notes: VHH-Fc
Regarding B26, the “Competition Factor” value in assay [2] was determined as 6.41. Also, binding in assay [3] was characterised by a dissociation constant (Kd) of 38.7 nM.

B27: variant 6-44 (Fc fusion)
VHH: EVQLVESGGGLVQPGGSLRLSCAASGGTFGVYHMGWFRQAPGKEREFIGRITWTDGSTYYADSVKGRFTISADNSKNTAYLQMNSLKPEDTAVYYCFGLLEVYDMTFDYWGQGTLVTVSS
Turning to B27, in assay [1], it took 0.97 nM to reach half-maximal inhibition (IC50). For the same molecule, it took 3.16 µg/mL to reach the 80% level in assay [5] (EC80). The molecule also had a Kd in assay [4] of 8.2 nM.
